Data as given in patent US20170363643A1.

Assays:
[1] = target: His-tagged recombinant human SMN protein (ProteinTech, catalog # ag14333) (human) (UniProt Q16637); assay: Erenna sandwich assay, capture MABE230 12.5 µg/mg MPs; Det Ab 500 ng/mL; SMN 0.06 pg/mL
[2] = target: His-tagged recombinant human SMN protein (ProteinTech, catalog # ag14333) (human) (UniProt Q16637); assay: Erenna sandwich assay, capture MABE230 12.5 µg/mg MPs; Det Ab 500 ng/mL; SMN 0.12 pg/mL
[3] = target: His-tagged recombinant human SMN protein (ProteinTech, catalog # ag14333) (human) (UniProt Q16637); assay: Erenna sandwich assay, capture MABE230 12.5 µg/mg MPs; Det Ab 500 ng/mL; SMN 0.46 pg/mL
[4] = target: His-tagged recombinant human SMN protein (ProteinTech, catalog # ag14333) (human) (UniProt Q16637); assay: Erenna sandwich assay, capture MABE230 12.5 µg/mg MPs; Det Ab 500 ng/mL; SMN 1.85 pg/mL
[5] = target: His-tagged recombinant human SMN protein (ProteinTech, catalog # ag14333) (human) (UniProt Q16637); assay: Erenna sandwich assay, capture MABE230 12.5 µg/mg MPs; Det Ab 500 ng/mL; SMN 3.70 pg/mL
[6] = target: His-tagged recombinant human SMN protein (ProteinTech, catalog # ag14333) (human) (UniProt Q16637); assay: Erenna sandwich assay, capture MABE230 12.5 µg/mg MPs; Det Ab 500 ng/mL; SMN 7.41 pg/mL
[7] = target: His-tagged recombinant human SMN protein (ProteinTech, catalog # ag14333) (human) (UniProt Q16637); assay: Erenna sandwich assay, capture MABE230 12.5 µg/mg MPs; Det Ab 1000 ng/mL; SMN 0.12 pg/mL
[8] = target: His-tagged recombinant human SMN protein (ProteinTech, catalog # ag14333) (human) (UniProt Q16637); assay: Erenna sandwich assay, capture MABE230 12.5 µg/mg MPs; Det Ab 1000 ng/mL; SMN 0.46 pg/mL
[9] = target: His-tagged recombinant human SMN protein (ProteinTech, catalog # ag14333) (human) (UniProt Q16637); assay: Erenna sandwich assay, capture MABE230 12.5 µg/mg MPs; Det Ab 1000 ng/mL; SMN 1.85 pg/mL
[10] = target: endogenous SMN protein in human CSF (human) (UniProt Q16637); assay: Erenna sandwich assay, capture MABE230; human CSF sample 3, unspiked (endogenous SMN only)
[11] = target: endogenous SMN protein in human CSF (human) (UniProt Q16637); assay: Erenna sandwich assay, capture MABE230; human CSF sample 5, unspiked (endogenous SMN only)
[12] = target: His-tagged recombinant human SMN protein (ProteinTech, catalog # ag14333) (human) (UniProt Q16637); assay: Erenna sandwich assay, capture MABE230; SMN 2 pg/mL, MPs 10 µg/well, Det Ab 100 ng/mL, Cap Ab/MP 25 µg/mg
[13] = target: His-tagged recombinant human SMN protein (ProteinTech, catalog # ag14333) (human) (UniProt Q16637); assay: Erenna sandwich assay, capture MABE230; SMN 2 pg/mL, MPs 10 µg/well, Det Ab 500 ng/mL, Cap Ab/MP 25 µg/mg
[14] = target: His-tagged recombinant human SMN protein (ProteinTech, catalog # ag14333) (human) (UniProt Q16637); assay: Erenna sandwich assay, capture MABE230; SMN 2 pg/mL, MPs 5 µg/well, Det Ab 1000 ng/mL, Cap Ab/MP 25 µg/mg
[15] = target: His-tagged recombinant human SMN protein (ProteinTech, catalog # ag14333) (human) (UniProt Q16637); assay: Erenna sandwich assay, capture MABE230; SMN 2 pg/mL, MPs 10 µg/well, Det Ab 1000 ng/mL, Cap Ab/MP 25 µg/mg
[16] = target: His-tagged recombinant human SMN protein (ProteinTech, catalog # ag14333) (human) (UniProt Q16637); assay: Erenna sandwich assay, capture MABE230; SMN 2 pg/mL, MPs 5 µg/well, Det Ab 100 ng/mL, Cap Ab/MP 12.5 µg/mg
[17] = target: His-tagged recombinant human SMN protein (ProteinTech, catalog # ag14333) (human) (UniProt Q16637); assay: Erenna sandwich assay, capture MABE230; SMN 2 pg/mL, MPs 5 µg/well, Det Ab 500 ng/mL, Cap Ab/MP 12.5 µg/mg
[18] = target: His-tagged recombinant human SMN protein (ProteinTech, catalog # ag14333) (human) (UniProt Q16637); assay: Erenna sandwich assay, capture MABE230; human CSF sample 1 spiked with recombinant SMN 5.0 pg/mL (endogenous SMN also present)
[19] = target: His-tagged recombinant human SMN protein (ProteinTech, catalog # ag14333) (human) (UniProt Q16637); assay: Erenna sandwich assay, capture MABE230; human CSF sample 2 spiked with recombinant SMN 5.0 pg/mL (endogenous SMN also present)
[20] = target: His-tagged recombinant human SMN protein (ProteinTech, catalog # ag14333) (human) (UniProt Q16637); assay: Erenna sandwich assay, capture MABE230; human CSF sample 1 spiked with recombinant SMN 10.0 pg/mL (endogenous SMN also present)
[21] = target: His-tagged recombinant human SMN protein (ProteinTech, catalog # ag14333) (human) (UniProt Q16637); assay: Erenna sandwich assay, capture MABE230; human CSF sample 2 spiked with recombinant SMN 10.0 pg/mL (endogenous SMN also present)
[22] = target: His-tagged recombinant human SMN protein (ProteinTech, catalog # ag14333) (human) (UniProt Q16637); assay: Erenna sandwich assay, capture MABE230; human CSF sample 3 spiked with recombinant SMN 10.0 pg/mL (endogenous SMN also present)

With “ProteinTech anti-SMN2 (catalog #60154-1-Ig) (antibody)” the detected events (DE) (detected events) [1] was 91, the event photons (EP) (event photons) [1] was 14200 and the detected events (DE) (detected events) [2] was 154. It also gave an event photons (EP) (event photons) [2] of 19500, a detected events (DE) (detected events) [3] of 562 and an event photons (EP) (event photons) [3] of 77500. The detected events (DE) (detected events) [4] was 1850, the event photons (EP) (event photons) [4] was 267000 and the detected events (DE) (detected events) [5] was 3190. For the same substance, the event photons (EP) (event photons) [5] was 497000, the detected events (DE) (detected events) [6] was 5960 and the event photons (EP) (event photons) [6] was 1.05e+06. It also gave a detected events (DE) (detected events) [7] of 193, an event photons (EP) (event photons) [7] of 26300 and a detected events (DE) (detected events) [8] of 630. The event photons (EP) (event photons) [8] was 87400, the detected events (DE) (detected events) [9] was 2140 and the event photons (EP) (event photons) [9] was 312000. It also gave a detected events (DE) (detected events) [10] of 278, a detected events (DE) (detected events) [11] of 479 and a detected events (DE) (detected events) [12] of 1130. It also gave a detected events (DE) (detected events) [13] of 2400, a detected events (DE) (detected events) [14] of 2180 and a detected events (DE) (detected events) [15] of 2670. It also gave a detected events (DE) (detected events) [16] of 753, a detected events (DE) (detected events) [17] of 1950 and a detected events (DE) (detected events) [18] of 5070. For the same substance, the detected events (DE) (detected events) [19] was 5310, the detected events (DE) (detected events) [20] was 9730 and the detected events (DE) (detected events) [21] was 9630. The detected events (DE) (detected events) [22] was 9140.
